The source of these data is the nanobody polyreactivity screen of Harvey et al. (2022).

This series in a line: yeast display, Sf9 membrane polyspecificity reagent, FACS + sequencing; frameworks hold sequencing errors. The essentials: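 Galactose induction of a Saccharomyces cerevisiae BJ5465 synthetic nanobody display library ran 36–48 hours. The cells were then stained for 1 hour at 4 °C with 10% biotinylated, detergent-solubilized Sf9 membrane reagent, pulled down on streptavidin microbeads and FACS-sorted into low and high (top ~1%) gates on expression and reagent-binding fluorescence. Labels for polyreactivity follow the gate of origin.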
“QVQLVESGGGLVQAGGSLRLSCAASGSTFQINAMGWYRQAPGKERELVARNSGSGSRTYYADSVKGRFTISRYNAKNTVSLQMNSLKPEDTAVYYCAARGTGKGYDSWGQGTQVTVSS”: the “polyreactivity (PSR sort gate)” value is listed as “high polyreactivity”.
The entry for “QVQLVESGGGLVQAGGSLRLSCAASGSTFQIYAMGWYRQAPGKETELVAAITSSSSTNYADSVKGRFTISRDNAKNTVYLQMNSLKPEDTAVYYCAADVSWRSNWYDYWGQGTQGTVSS” is “low polyreactivity”.
In the case of “QVQLVESGGGLVQAGGSLRLSCAASGSTFQKNVMGWYRQAPGKERELVAAITSVGSTNYADSVKGRFTISRDNAKNTVYLQMNSLKPEDTAVYYCAKDQVPYYYVFGVYDYDYWGQGTQVTVSS”, the “polyreactivity (PSR sort gate)” value is “low polyreactivity”.
The result for “QVQLVESGGGLVQAGGSLRLSCAASGSTFQLYAMGWDRQAPGKERELVAAITSSAGRTYYADSVKGRFTISRDNAKNTVYLQMNSLKPEDTAVYYCAKDGSFTFWGQGTQVTVSS” reads “low polyreactivity”.
The entry for “QVQLVESGGGLVQAGGSLRLSCAASGSTFQNNPMGSYRQAPGKERELVATISRRGGSTYYADSVKGRFTISRDNAKNTVYLQMNRLKPEDTAVYYCAAQAPNYAHRYYYWGQGTQVTVSS” is “high polyreactivity”; for “QVQLVESGGGLVQAGGSLRLSCAASGSTFQQYGMGWYRQAPGKERELVAAITFSDGNTYYADSVKGRFTISRDNAKNTVYLQMNSLKREDTAVYYCNAGYSYGVSYAEGGYWGQGTQVTVSS” it is “low polyreactivity”.
For “QVQLVESGGGLVQAGGSLRLSCAASGSTFQRNAMGWYRQAPGKERELVAVITRRGASTYYADSVKGRFTISRDNAKNTVYLQMKSLKPEDTAVYYCNKVPYGRDHHLLFDYWGQGTQVTVSS”, the “polyreactivity (PSR sort gate)” value was “high polyreactivity”.
The entry for “QVQLVESGGGLVQAGGSLRLSCAASGSTFQRYAMGWSRQAPGKERELVAAIDTVGSTNYADSVKGRFTISRDNAKNTVYLQMNSLKPEDTAVYYCAVVTPYWSFYEQVIPSNYWGQGTQVTVSS” is “low polyreactivity”; for “QVQLVESGGGLVQAGGSLRLSCAASGSTFQSNAMGWYRQAPGKERELVAAITVSAGSTYYADSVKGRFTISRDNAKNTVYLQMNSLKPEDTAVYFCAANRYVYPSYRFDYWGQGTQVTVSS” it is “low polyreactivity”.
The entry for “QVQLVESGGGLVQAGGSLRLSCAASGSTFQSYAMGWYRPAPGKERELVATITWSSGRTYYADSVKGRFTISRDNAKNTVYLQMKSLKPEDTAVYYCAARKRPFYKYDYWGQGTQVTVSS” is “high polyreactivity”.
The result for “QVQLVESGGGLVQAGGSLRLSCAASGSTFQSYTMGWYRQAPGKERELVATITSTSSTSYADSVKGRFTISRDNAKNTVYLQMNSLKPEDTAVYYCNAEGLHWGQGTQVTVSS” reads “low polyreactivity”; that for “QVQLVESGGGLVQAGGSLRLSCAASGSTFQTYAMGSYRPAPGKERELVAAISKTGASTYYADSVKGRFTISRDNAKNTVNLQMNSLKPEDTAVYYCAAGRYTSYYPRYYYWGQGTQVTVSS”, “high polyreactivity”.
Turning to “QVQLVESGGGLVQAGGSLRLSCAASGSTFQTYARGWYRQAPGKERELVASIDYSGGSTYYADSVKGRFTISRDNAKNTVYLQMNSLKPEDTAVYYCAKALSQTWYDGQYGYWGQGTQVTVSS”, the “polyreactivity (PSR sort gate)” value is “low polyreactivity”.
The result for “QVQLVESGGGLVQAGGSLRLSCAASGSTFQVYAMGWYRQAPGKERELVAAISNGGRTNYADSVKGRFTISRDNAKNTVYLQMNSLKPEDTAVYYCNADQVWWSFDRVLVGYEYWGQGTQVTVSS” reads “low polyreactivity”; that for “QVQLVESGGGLVQAGGSLRLSCAASGSTFQVYAMGWYRQAPGKERELVASITSGGSTYADSVKGRFTISRDNAKNTVYLQINSLKPEDTAVYYCAAGGYFYPYTYDYWGQGTQVTVSS”, “low polyreactivity”; that for “QVQLVESGGGLVQAGGSLRLSCAASGSTFQWYAMGWYRQAPGKERELVAGITRTGSTYYADSVKGRFTISRDNAKNTVYLQMNSLKPEDTAVYYCAAKWHTASGKYYYWGQGTQVTVSS”, “high polyreactivity”.
The entry for “QVQLVESGGGLVQAGGSLRLSCAASGSTFQWYTMGWYRQAPGKERELVAAISRSGGRTYYADSVKGRFTISRDNAKNTVYLQMNSLKPEDTAVYYCAARWGRLPEQYRYDYWGQGTQVTVSS” is “high polyreactivity”; for “QVQLVESGGGLVQAGGSLRLSCAASGSTFQYKAMGWYRQAPGKERELVAAISRRGGSTYYADSVKRRFTISRDNAKNTVYFQMNSLKPADTAVYYCAKEKGYWSGYDYWGQGTQVTVSS” it is “high polyreactivity”.
The result for “QVQLVESGGGLVQAGGSLRLSCAASGSTFQYNAMGWYRQAPGKERELVARISSSGGRTYYADSVKGRFTISRDNAKNTVYLQMNSLKPEDTAVYYCNKGYPYVAYDYWGQGTQVTVSS” reads “high polyreactivity”; that for “QVQLVESGGGLVQAGGSLRLSCAASGSTFQYYAMGWYRQAPGKERELVAAISDGTNTNYADSVKGRFTISRDNAKNTVYLQMNSLKPEDTAVYYCAARFYSIVKYVGIGTDEYDYWGQGTQVTVSS”, “low polyreactivity”.
With “QVQLVESGGGLVQAGGSLRLSCAASGSTFQYYAMGWYRQAPGKERELVAAISYGGSRTYYADSVKGRFTISRDNAKNNVYLQMNSLKPEDTAVYYCAKVKYRALAPYYYWGQGTQVTVSS”, the “polyreactivity (PSR sort gate)” value was “high polyreactivity”.
The result for “QVQLVESGGGLVQAGGSLRLSCAASGSTFQYYAMGWYRQAPGKEREMVAAISASVDTTFYADSVKGRFTISRDNAKNTVYLQMNSLKPEDTAVYYCATDWPHWRKVYWFDYWGQGTQVTVSS” reads “low polyreactivity”.
The entry for “QVQLVESGGGLVQAGGSLRLSCAASGSTFRANAMGWYRQAPGKERELVAAISQSGGITYYADSVKGRFTISRDNAKNTVYLQMNSLKPEDTAVYYCAALGYRIKRGRFYYWGQGTQVTVSS” is “high polyreactivity”; for “QVQLVESGGGLVQAGGSLRLSCAASGSTFRANAMGWYRQAPGKERELVAAISSGDSTNYADSVKGRFTISRDNAKKSVYLQMNSLKPEDTAVYYCAAVYTYYWWGSYGYWGQGTQVTVSS” it is “low polyreactivity”.
The entry for “QVQLVESGGGLVQAGGSLRLSCAASGSTFREYAMGWSRQAPGKERELVAAISSGDSTNYADSVKGRFTISRDNAKNTVYLQMNSLKPEDTAVYYCAADAPGAAAVQNDYWGQGTQVTVSS” is “low polyreactivity”; for “QVQLVESGGGLVQAGGSLRLSCAASGSTFRFNAMGWYRQAPGKERELVAAITGIGGITYYADSVKGRFTISRDNAKNTVYFQMNSLKPEDTAVYYCNAAGGYKPYLQDVDSRYDYWGQGTQVTVSS” it is “high polyreactivity”; for “QVQLVESGGGLVQAGGSLRLSCAASGSTFRFYGMGWYRQAPGKERELVAAITYRSGITYADSGKGGFSISRDNANNTVYLLMNSLKPEETAVYYCAARARRYTDEYDYWGQGTQVTVSS” it is “low polyreactivity”.
Regarding “QVQLVESGGGLVQAGGSLRLSCAASGSTFRFYTMGWYRQAPGKERELVATITSGGSTNYADSVKGRFTISRDNAKNTVYLQMNSLKPEDTAVYYCAASSVLTNHDYWGQGTQVTVSS”, the “polyreactivity (PSR sort gate)” value is reported as “low polyreactivity”.
The result for “QVQLVESGGGLVQAGGSLRLSCAASGSTFRGNAMGWYRPAPGKERELVASITGGGSTNYADSVKGRFTISRDNAKNTVYVPMNSLKPEDTAGYYCAADWGADFYWGQGTQVTVSS” reads “low polyreactivity”; that for “QVQLVESGGGLVQAGGSLRLSCAASGSTFRGNAMGWYRQAPGKERELVAAITGRGGRTYYADSVKGRFTISRDNAKNTVYLQMNSLKPEDTAVYYCAAYSRYKPYGITAYDYWGQGTQVNVSS”, “high polyreactivity”; that for “QVQLVESGGGLVQAGGSLRLSCAASGSTFRGYAMGWYRQAPGKERELVAAISWSAGSTYYADSVKGRFTISRDNAKNTVYLQMNRLKPEDTAVYYCAKASVALRYYSYSLGRDYWGQGTQVTVSS”, “low polyreactivity”.
The entry for “QVQLVESGGGLVQAGGSLRLSCAASGSTFRHYAMGWYRQAPGKERELVAVISWGGTSTYYADSVKGRFTISRDNAKNTVYLQMNSLKPEDTAVYYCNKAYFPIFKGYEMYYWGQGTQVTVSS” is “low polyreactivity”; for “QVQLVESGGGLVQAGGSLRLSCAASGSTFRINAMGWYRLAPGKEREFVAAIRWNGGSTNYADSVKGRFTISRDNAKNTVYVQMNSLKPEDTAVYYCAADGYIGWRHIYEYWGQGTQVTVSS” it is “low polyreactivity”; for “QVQLVESGGGLVQAGGSLRLSCAASGSTFRIYAMGWYRQAPGKERELVAAITSGGDTNYADSVKGRFTISRDNANNTVYLQMKSLKPEDTSVYYCAADGHSVYTELDYWGQGTQVTVSS” it is “low polyreactivity”.
The result for “QVQLVESGGGLVQAGGSLRLSCAASGSTFRIYAMGWYRQAPGKERELVAGITRRGGSTFYADSVKGRFTISRDNAKNTVYLQMNSLKPEDTAVYYCAARFRGGMDYWGQGTQVTVSS” reads “high polyreactivity”.
As to “QVQLVESGGGLVQAGGSLRLSCAASGSTFRLYAIGWYRQAPWKERELDAAISSGGTTKYADSVKGRFTISRDNAKKTVYLQMNRLKPEDTAVYYCNAVYHWGNPGEYATLPRYDYWGQGTQVTVSS”, the “polyreactivity (PSR sort gate)” value was “high polyreactivity”.
The result for “QVQLVESGGGLVQAGGSLRLSCAASGSTFRLYAMGWYRQAPGKEREFVAAISFRGGSTYYADSVKGRFTISRDNAKNTVYLQMNSLKPEDTAVYYCNARVRVRLGRNWSSYYYWGQGTQVTVSS” reads “high polyreactivity”.
As for “QVQLVESGGGLVQAGGSLRLSCAASGSTFRNYAMGWYRQAPGKERELVAAISGSGGRTNYADSVKGRFTISRDNAKNTVYLQMNSLKPEDTAVYYCNARFPDWALSEISHSTTYGYWGQGTQVTVSS”, the “polyreactivity (PSR sort gate)” value is “low polyreactivity”.
The result for “QVQLVESGGGLVQAGGSLRLSCAASGSTFRPYGMGWYRQAPGKERELVAAINSGDSTYYADSVKGRFTISRDNAKNTFYLQMNSLKPEDTAVYYCNADVWWDTWFLDGYDYWGQGTQVTVSS” reads “high polyreactivity”; that for “QVQLVESGGGLVQAGGSLRLSCAASGSTFRQNTMGWYRQAPGKEREFVAAINYSGGSTNYADSVKGRFTISRDNAKNTVYLQMNSLKPEDTAVYYCAVRQYYYKRMGYWGQGTQVTVSS”, “high polyreactivity”.
“QVQLVESGGGLVQAGGSLRLSCAASGSTFRQYAMGWYRQAPGKERELVAAISSSGSTTYYADSVKGRFTISRDNAKNTVDVQMNSRKPEDTAVYYCAATYGFYYFPYDYWGQGTQVTVSS”: the “polyreactivity (PSR sort gate)” value was “low polyreactivity”.
